1 molecule from article PMC9524020 (2022) can be followed below.

Common to all, as to experiment: SPR
A general note: In SPR one partner is held on a chip, and binding of the other changes the refractive index at the surface.

Test [1] deals with FcγRIIIa-158V, FcγRIIIa-Hybrid (human).
Test [2] concerns the target FcγRIIIa-158V, FcγRIIIa-G2FS(2-6) (human).
Test [3] deals with FcγRIIIa-158V, FcγRIIIa-Monoantennae (human).
Test [4] deals with FcγRIIIa-158V, FcγRIIIa-Oligomannose (human).
The target of test [5] is FcγRIIIa-158V, FcγRIIIa-CHO^WT (human).
Sequence of FcγRIIIa-158V, FcγRIIIa-CHO^WT (human) (chain, as listed by the source): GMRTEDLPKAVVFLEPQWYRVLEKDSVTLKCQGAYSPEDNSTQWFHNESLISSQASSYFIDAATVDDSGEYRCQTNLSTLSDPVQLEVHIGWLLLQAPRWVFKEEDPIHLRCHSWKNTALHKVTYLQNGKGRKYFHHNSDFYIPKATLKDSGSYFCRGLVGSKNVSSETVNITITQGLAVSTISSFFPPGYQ
Test [6] deals with FcγRIIIa-158V, FcγRIIIa-HEK^WT (human).
Sequence of FcγRIIIa-158V, FcγRIIIa-HEK^WT (human) (chain, as listed by the source): as above
For test [7], the target named is FcγRIIIa-158V, FcγRIIIa-Afucosylated (human).
Sequence of FcγRIIIa-158V, FcγRIIIa-Afucosylated (human) (chain, as listed by the source): as above

By Kd is commonly meant the equilibrium constant for the complex coming apart. High values mean a looser complex, low ones a tighter complex.

Sequence of FcγRIIIa-158V, FcγRIIIa-Hybrid (human) (chain, as listed by the source): as above
Sequence of FcγRIIIa-158V, FcγRIIIa-G2FS(2-6) (human) (chain, as listed by the source): as above
Sequence of FcγRIIIa-158V, FcγRIIIa-Oligomannose (human) (chain, as listed by the source): as above
Sequence of FcγRIIIa-158V, FcγRIIIa-Monoantennae (human) (chain, as listed by the source): as above

B1: IgG1-CHO^WT (anti-rabies human IgG1 mAb SO57 from the CHO wildtype clone) (antibody)
chain 1: QVQLVQSGAEVKKPGSSVKVSCKASGGTFNRYTVNWVRQAPGQGLEWMGGIIPIFGTANYAQRFQGRLTITADESTSTAYMELSSLRSDDTAVYFCARENLDNSGTYYYFSGWFDPWGQGTLVTVSS
chain 2: QSALTQPRSVSGSPGQSVTISCTGTSSDIGGYNFVSWYQQHPGKAPKLMIYDATKRPSGVPDRFSGSKSGNTASLTISGLQAEDEADYYCCSYAGDYTPGVVFGGGTKLTVL
modifications: N-glycan at Asn297: dominant G0F glycans with small amounts of G1F
As to B1, the Kd in test [1] stood at 0.46 µM; in test [2] it was 0.44 µM; in test [3], 0.49 µM; in test [4] it was 0.24 µM; in test [5], 0.49 µM; in test [6], 0.44 µM. The molecule further showed a Kd in test [7] of 0.46 µM.
